Results published in the domain aggregation screens of Martell et al. (2025).

assay: soluble fraction after stress (log2 fold change); higher = more stays soluble; pooled small domains, quantitative proteomics; settings: stress: pH 4
How it was run: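 Aggregation propensity is estimated from the fold change in each domain's soluble amount after acid stress. Pooled small-domain libraries were stressed at pH 4, and higher log2 values mean more stayed soluble.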

Row | Sequence | soluble fraction (log2)
1 | HMSIQREIILEVIKNNRTHPTAEEIYILVTKKEPKISRSTVYRNINILVEKGIIEKITIATGPDRYDY | -0.126
2 | HMSISDEDFAKLLDFVKEKWDAGELDNAEDIKAAISEGEKEFGVSLDESTRTTLASALQQLN | -0.496
3 | HMSIYDAPIEDLKFSTRIFNSLKRADIHTVADLIAHSRDDLMKVRNLGATSLDELIEKLGTHGLQLADP | -0.356
4 | HMSIYYQIYESLKKDLSNNLYKPGEKLPSENVLSKRFGVNRHTIRRSLQLLKNEGILFSKRGSGIIVHD | 0.359
5 | HMSKDKEKRTREHVLGILKKYDKVMTDKAFTVFKKMIKDESILEMELIKLINFIGERKEIRSKDVLAVVTE | -0.329
6 | HMSKEIQNILASLPSVDVLLKQIDPIYPHGKAKEATQQVVARLRESVVDGTRKTVIDQKEVIAMIHKQLEE | -0.149
7 | HMSKETTYEVLSLKGDEWQTDTIYSDRDEAIEAARNLHGDPHIDGAKVISEVYDDKTGGSKETTIFNT | -0.21
8 | HMSKHAIQNELEKIEGIGKQTADSLLKEFKSVKKLRTLPLSEIEKVIGKSKATIVFEALHKDK | 0.0949
9 | HMSKHATLLEALADLSVKLKPHSQLPSERALSEEYGVSRMTLRRAIDVLQARGYIYSVPSKGLFVSEP | -0.0584
10 | HMSKHATLLEALAELTVKLKPHTQLPSERQLSEDFGVSRMTLRRAIDVMQSRGYIYTVPSKGLYVSEP | -0.156
11 | HMSKIRTFRVKTVAVDQAYQVLKDYSPIKISTESNAVIIDLDESKTPAEIAGYLEKNGIKVDNIEVIAESE | -0.148
12 | HMSKISKENEQQVIQIVQTLLLNVQDKSLITTQILNEKINLAVSLDTKYKENLDRDYIIEELIRRYSVW | -2.54
13 | HMSKKIVLPAAITVKKFSETLDMPLGTVISELMKNGILATINERIDFETASIIAQDLGYEVSEEV | 0.0626
14 | HMSKKQEQALQSREKLLDAATALFAEHGYRDTSVQAIGEKAGVSRGSIFWHFGSKEGLLWAVVERAFTA | 0.346
15 | HMSKKTQKDEVVDLFLKTGNEPLHYKEISKKTGIIVHNVRRITGQNVVGKTDNPVFKRVSPGVYKLID | -0.0395
16 | HMSKLSVSSLSSPEVQNQLKAAGIDVNSRQYQVVMKDMMGALDGRAGYTTVSAIKNRMRQYNADGDY | 0.19
17 | HMSKMVEMSQEKSREKVARVKIEIQKMLDRKERVTVSGLERATGFSNSFFYRNEEVNQAVKEAQLKQ | 0.0693
18 | HMSKNIRQQFLDVLPKTFDRNQYLETAKKLSINAKTAEGYIKKFVEANLLDHPKHNHYINLKKVEEVETK | -0.0789
19 | HMSKNYYEILGVTPDVELSQLKAVYRRLVRKYHPDINPDGELIFKDITEAYEVLSDEKQRKQYDMINGF | -0.362
20 | HMSKPILSFVDPEKDPSHYVKRYITEETYKDWFSEHFPDYTLYEGIGITQEEYRNIVNELTKP | -1.7
21 | HMSKPIYSELLREIRSGDVKELTLIPQRREVLVEYSDGRKATVSILANDQQVLRTAESAGVPLTVK | 0.116
22 | HMSKPVFQTHSVRSADSATVFDVLQTLLAGTPDARIAIDPKTNAIVAWARPETQEVIAKSIMEMEG | -0.418
23 | HMSKQIEVPDVTDMTVSDAIDVLQDKGFVVSDEQKEVASSEIEEGRVVRTSPAVGSKRKDGTVVTLYVSI | -0.479
24 | HMSKTEEIAYTTFVKYLENKDIEEVYLGNNAKIKVILKDGREMITDNPRTADFKKDLLLHDIKVVEKT | ≥ 0.43
25 | HMSKYGIAYSEVLEILKHIPIEDYNKIPRNEIELFETYADKDFTFNYDSSKTLEEQNVSNITKGIIIL | -0.465
26 | HMSLEEQNGAKDRQVEAYELLLKAQRALDQEDTAGFQAAMKDLEPLSSQLDAQGQTLYHELLPFVS | -0.246
27 | HMSLGSNISRLRAEKHLSQGDLAEALDVSRQSVSKWETDGSVPDLDKLVKLSRIFGVTLDELVTGTP | 0.0988
28 | HMSLIHEQSLKEIRIFINNLPESLRTAFTLREQDGLSYEEISKITDTPIGTVRSRIFRARESILEHINEEL | -0.599

Row | Sequence | soluble fraction (log2)
29 | HMSLLTPLEEARIVIEELIIPQKLTLDLLPQNSQIRKLQHEIINHYRLKGISIGDGKNRRVRIYS | -1.48
30 | HMSLMHEESLKNIRRFINSLPESLRTAFTLREQDGLSYEEIGVITETPIGTVRSRIFRAREAILEHIKKEL | -0.445
31 | HMSLMLYVEDVDTAFKKAIELGATEIRPVHDQFYGDRAGTLQDPFGHIWIIGTHKEDVSDEELNNRIGNI | -0.332
32 | HMSLPNNLIEQLQDPEPKARRRAVRRLAATRDPSAIPLLRNVYLQDGDDRVRDAAEAALVQFRAMQHN | 0.104
33 | HMSLPTYVQISEAIARRITAGQWLDGERLPPERTMAAEFGVAVGTLRKALSRLQDQKLLRRLQGSGNYINI | -0.264
34 | HMSLREKNKARTRTAILNAARDLAKQGQWDAITTRQIADAAGVSYQTLYNYYPSKASILVEMLL | -0.219
35 | HMSLSDDIAQTLRQLGFDRDVSETLANDVLPAMPTRQDVIDLLGTLGIEKHVAADFANFVVLN | -1.08
36 | HMSLSEYLSAPVLEGQRNHALFSAVMQAREQGWDEWQIRTTIGAKAEADGLRHAEIAATIRSAMSREITP | -0.0425
37 | HMSLSIKINHESVGLRLDQFLQEHYYKQQSRSYVQHAIKEGYILVNGQSVKNGYMLKLDDLIELEAI | -0.166
38 | HMSLSNMIGKNIQWTHVTKTKDAEGNPKTNSETFAGNVRGVKVLNGKPMVVAQDAKGKLHEVEVSEIEAIA | 0.22
39 | HMSLTEDELFHALTIYANREGINIGATELKYLLTHYARNLGKLIELINQVSQAATMQKKPITIPLIKHS | -0.251
40 | HMSLTGFYNLTFKQADRLSVIDEAGEEVYKQAIAMGSTTKTIDLSALNAGVYFIRIYNGEVIAQEKIVLN | -0.958
41 | HMSLTYTGKFILNHNNIDQSSFNINIYLVNKQTIIQITKPFYGNVLNIKFNEENDLIISPKQFS | -0.9
42 | HMSMDPYTVLGVNKSSTDSQIKNAYKNLAKQHHPDRGGNEAKFKEISTAYEQIKTAEKRQQYDMSQQF | 0.389
43 | HMSMFAQQLKDLRKKIPGLTQTDMAKKLGIAKTTYASYEQGKRTPDIETQNKIADFFNVSLDYLHG | 0.22
44 | HMSMFSEILRTLRKAKGLTQRELAGHLGVTQQMVAKWEKGQSTPGPDQLTRMAELLEVSTDTLLGR | -0.104
45 | HMSMNSWFVEKERDNTRIDKFLNEQMADISRSYIQKLIKDDLVTVDLRPVKANYKVKEGDRVEVTLPEPV | -0.0679
46 | HMSMPTITLQHYKRGSHYYASIIETFRDPVTRKNSSRTLEALGDISEKMKEDPNYLQSLKDRVKALRSD | 0.156
47 | HMSMSLQFLSRRIRLQREKRGLKQHDIAHALQISPQAVSKWERGENAPDIALLRPLAGLLGVSIDWLMGGD | -1.7
48 | HMSNEEEIEGLVSKVLDNNPEIVERIRSGEDKLISYLVGEVMKQSSSSLNPGIVKEIIVNKTI | -0.154
49 | HMSNEITVPDLSGMSLEELETILSDRSLSYEIIDSIYNSTAKKGTVSSQDPLPDAKVKSGRTIYITVVSKL | -1.31
50 | HMSNENIDQDELQAIIQKVLASNQDAVAKYKAGKTAVIGFLIGQVMRQLNKKIDVALAKKTLLVFLEK | 0.0782
51 | HMSNETKSAILNFAEKHHDFNIDDLFESLSKSMDINRSSLLWHLFKLVNSNVLIRTGRGMYAKV | -0.839
52 | HMSNEVSYSDFVRSVESDEVNAVTLDGEQIRFVGNDGQTYSVIKPADAQITQLLIDNNVTVRAEQQ | -0.0566
53 | HMSNEYLMPNLIGMSWDEAKSKYSQYMTLVPEQEWSEVTKDQIFDQEYPEGRKVKIGTEVTVKVSMGI | 0.228
54 | HMSNFGALLRMRRLEAGLSYRGLAEQSGLARATLVNLEQGLTKPSPLTMRRLASVKALRLTEL | 0.00389
55 | HMSNFGERLRALRQDRQMTLQQASKVTGVAQSTLSKMENNQLSPTFNLMQKLAIGLGIDMPQLFAPVK | -0.18
